experiment: soluble on expression in E. coli; label from the status in PepcDB or PDB records

Sequence	soluble on expression in E. coli
MISIHFEKAHDCHQLFQQLQGYLTKYAELGLKGGIEAGGDETLYVNYENQYVNFYDSFQPLLASIFTDYVISTKEEEWLLDIIENMFYFTDEEEKEQIVAIARSILEGDLEDMPSLSMFTNRREYIYQAFSKHIEENMTFYYDPFLTFRLREYGELLIDCVELAIDEYMMEQEYQSMVETLRQFIHSRIPKRGVIYAVYDERFHFYDEHFRLISTDEIVYDLKEELVFEHGLSVEEMVISPLVSMLPETVKVFTNDEEHGVILTLQAIFQERLKVFPLKDSPHQHREELEHHHHHH	soluble
MISKRNTPQRRHAILALLSEQGEVSVDALAKRFSTSEVTIRKDLAAMESHGLLLRRYGGAVPMPQELIGEAAQPVSPYKQAIGRAAAARIREHARIIIDSGSTTAAMIPELGHKPGLVVMTNSLNVVNALRELEHEPVLLMTGGTWDPHSESFQGQVAEQVLRSYDFDQLFIGADGIDLERGTTTFNELLGLSRVMAEVAREVIVMAEADKVGRRIPNQELPWSSIHTLITDERLESSAREQITARGVTLICTPVEALEHHHHHH	not soluble
MISVFHYHQPKIGNSESEYEDAFSYDVEKGLFAMADGSSESVFSNEWARSLVDTFVAGKYDMKIDDMVETAVGMWRSKLPWNNMKWFVKNKIARGSMATFLGLEVLDGSFRSVAVGDTCLFIITPEGMKSFPVKYPSEFGNTPKLIWTGNPLLRTRRSIKWANYMEGRISESDLLIMATDSLAHWMLSRAKQRPWQILIDHSENEGEFIGSLINSGEMKNDDVTFAIISLK	not soluble
MITPSRYPGIYIAPLSSEPTAAHTFKEQAEKALDHISAGPSGRELLQEISKLASKKDRKVTLKEIEINNQCYTDAVLSRRQLEKYEPEDFNENRRIASRLSRKGTFTKGEGSNAIIGWSPDKASIRLNQNGSPLRLGMDNDDKITTLAHELVHVRHVLSGSSLADDGDRYNPRTGSGKEELRAVGLDKYSYSLTKEPSENSIRAEHGLPLRMKYRPHQ	not soluble
MITPVSSFSIDDLLRGHSNEIQRILKLDQTSPTPQSSSDEGSEKSSISVMSVPLTNELTPTITPALSDQLWLAAAAFPIEHSLLLAQRNGVFPGFWSTADQIRLSNATKAYRRLRLECSRRKARTVFSDQQLQGLERRFESQRYLSTPERIELANALNLSETQVKTWFQNRRMKHKKVVRKDDNSVDDDNGNDNESE	not soluble
MITTPNISLTPTVAPPVDFPIIGNCDFQAQLWHLMSLHLQMQKSSAASTSSSSSSSTSSENLKKSPSSVQNTSVFSIDNILNSQKVPKLELENDEDVSSSPSPTCSTTGYTLDSLQNLDRRSLNKKGPSSHNRCVCDKCGKSYATTSNLSRHKQTHRALDSPHAKQCPHCDRVYVSMPALSMHILTHNASHECNVCGKRFSRLWLLQGHLRSHTGLRPFSCAHCGKSFADRSNLRAHMLTHTGDKRFECDKCGRRFALRAYLNRHLETCK	not soluble
MIVMPKRLSDEIASRVRALIEEQNLEAGMKLPAERQLALQLGVSRNSLREALAKLVSEGVLVSRRGGGTFVRWQHETWSEQNIVQPLKMLMANDPDYSFDILEARHAIEASTAWHAAMRATAADKEKIRLCFDATLSEDPDLASQADVRFHLAIAEASHNVVLLQTMRGFFDVLQSSVKQSRQRMYLVPPVFSKLTEQHQAVMDAILDGNAEGARKAMMAHLSFVHTTIKRFDEDQARQARITRLPGDHNEMTRENKS	not soluble
MIVNDSVVIHASRDIAADAAGNISVTTADLKVSVMLRVADKPERATAQLVFRALSEVEAFKMRVADEVERLQHSFEQDFETRHRELDQEVARAAEDTIAHRLLERREYVNLRAIERNDDNIILRVTGGVWVGTELYLLFEIQNRDSTPYHLDRVRVVGAGEERAGAVAFEDRTYPEGGSMGSIASGQRGRGIVAVRNARQLAGQPVRLIVSEARERRAVSVGDIRWR	not soluble
MIWRLIMLIDRFGRPVTNLRISLTKECNLSCFYCHREGQLDGERFMTPEEIERIVRVASRLGIKKVKLTGGEPTIRKDILEIIRRLKPYVVDLSLTTNGTTMYVLAEKLKEAGLDRVNISLDTLDRKKYKMITGFNVLDEVIKGIKKATKLFYPVKLNMVVMKGVNDDEIWDMMRFAGEVNAILQLIELEVPREMENSQFFKDFFYPLKPLEEKFEKLAVKVKERRMHRRRKYFIPIDGKIVEVEVVRSMHNTVFCMNCTRLRLTADGYLKTCLLRRDDLIDILGPLRNGASDADLIEIFKRAVLLRRPYWTSNSSLEHHHHHH	soluble
MIYIIQGGRAGNQLFSYAFAQRIRQIYGNEEICFVLSAIKNKAMDDCNGAYWEDSLKYFDVQDYSVSFEDNIVTKEGNLFQRFLYQFWRGSRKLNNIIFSLTGVEFSKFSLLLNRVVFNLISRFGLYIITHGFSESIKKTSFKNKFIYGSFEDNRWFSDIESKLRLEFKPKYNLNEKALQLYNELLNQNAICVSLRKWSIDVHDDSELEKREICDRNYYEKAINHIINTVEKPIFVVFSDDLEWASELMRSIIKDRYPLLVEKGDNNVAEKLFLMSTCKHFIIANSTFSWWAAYLGEFSDKIVVSPNIWFKSNKQFHPLILDDWIKINCQLEHHHHHH	not soluble
MIYINLYNSNQMTKGILIAGTHSGVGKTTVSMGIMAALKHRQLKVQPYKVGPDYIDPSHHTAICGRPSRNLDTYLMGTEGVRQTVARTSADADIAVVEGVMGLFDGIDSTEVASSAHVAKTLDIPVILVINVHGMSRSAAALLKGYSEFDPEVRVAGVILNQVGSPRHAELVKNSLPGNIPIIGTIPRRKDIEVPSRHLGLYMAHEK	not soluble
MIYLRKLKKEDLMSLWEMAYSQLNPVWKQYDAPYYDDYQYFSNFKEFELQKSESILSNSNRLGIFVDDKLVGTVSRYWVCKETRWMELGIGIYDKKFWNTGIGKVAMLQWIDRTFQDYLELEHLGLTTWSGNIGMMKLAEKLRMKKEAHIPKVRYYQGKYFDSIKYGILREDWEKINDGYYQINGNS	not soluble
MIYPLPAILVSCGKDESEYNIITVAWTGTICTNPPMCYISVRPERHSYDIIKKNMEFVINLTTKDMAFPTDWCGVRSGRNYRKFEEMKLTPGRCTVVSAPLIEESPLCIECRVKEIVSLGSHDMFIADVVNVRADDRNLNPETGKFELAEANPLVYVHGGYYDLGEKIGKFGWSVEKKK	not soluble
MKAAEHDLLTIELAPRRRDELQIHNKKIAEVDHWLKNVFSESNKQLGVMYLTGPAGSGKSTTVEVMCTEQNIEIIEYSPEYLHNEDFECEKPDFTQLRRFLLRRHGSLRGGGLKKRLLLVTELPDQAYSDAEKFREDLSEVLQHIWHPVIFCLTNSIACWNLNPDRLFTKDFNIMNGIDTVTFNPVADSFMKKALVRASNCLSSPLSDAKLNVIGEEAGGDLRIAMNMLQMNSIGPNADRRSGNSVICASKANREEAFHMIGRILYAKRVNPNVPKPSRFSKRRRKSAPIPEPLVRTELEHDPTDIITMSSMTSEKLLDFLFQNEPIFCSNISKYRYVAETFSMCDFLTGDWTTRKSLPEDYVAQMATRSVMWNNYKEPRPGTLFAVGRPLRSSLEKHTARTKLELQRLPMIGAKDYAALTCPYITIIKDIIDPQRIEYFLSRPMDINWQWGNDKIEEHLEKQYALDYKGRKKHRLPLHKAPKPSGKIIEVVDLEEEEEKFTIEESSDDSFEEF	not soluble
MKAAVVEQFKEPLKIKEVEKPTISYGEVLVRIKACGVCHTDLHAAHGDWPVKPKLPLIPGHEGVGIVEEVGPGVTHLKVGDRVGIPWLYSACGHCDYCLSGQETLCEHQKNAGYSVDGGYAEYCRAAADYVVKIPDNLSFEEAAPIFCAGVTTYKALKVTGAKPGEWVAIYGIGGLGHVAVQYAKAMGLNVVAVDIGDEKLELAKELGADLVVNPLKEDAAKFMKEKVGGVHAAVVTAVSKPAFQSAYNSIRRGGACVLVGLPPEEMPIPIFDTVLNGIKIIGSIVGTRKDLQEALQFAAEGKVKTIIEVQPLEKINEVFDRMLKGQINGRVVLTLEDK	soluble
MKAFDQVNHSLLLHKLHDFGINPLFCNWFHDFLSSRTFSVKVNNHIDPNIHPIPSGVPQGSVSGPFLFLIFINSLLLSLPPTISCSAFADDLKVYSHSPPLIQTTIDLITAWSENNKLPLAHSKTCLLHLGKKNPKTVYKINNLPISPSNVARDLGILTDSKLTFKTHIKKIVFLALLRCKQLLKSFKSLCPEFCCNLFKTYILPLIEYGSAVYSPKPSSSLSTLLEKPLRWYSQKVLQKCNISYSSYNDRLKSLNLHSIRHRRLKSKLILLYKFCCGTSFLPQKETYFKLSTSSRRPMRIICHNPSSNNFFSDTISFWNAITNNCDTFLSPIHFENLVDNSITRL	not soluble
MKAIILAGGQSERFGEPKAFAQINAQPFYKRIIDVLEGTNMFNQIIISTNETLASQFDHSDIIIDEDQNKDKGPLAGIQSVIQHYESEELFFVVSVDTPMISQKAVSKLYQFMVEHLIEDQLDIAGFKEKGRPIPTIAFYSPHTLPYIDDALNSNDYSLKSVYNKVKSDWLDVNLIESPDYWYKNINYQQDLDSLQQDILNR	not soluble
MKAIPSNVWATRPTKPFTCFFCPMIVLTEDGSPTILSPHYGEYYHSIHGACRESEHVFVHTGLLHRLESFDPSGTLYLFEVGFGTALNALLTLREQRCRGLSIHYSAIEKFPLERDVYEHLRFSVGMADEDKLLQSLHHAPWGMDCEICPGFTLHKIASDLTDFTFRKPIDLIYFDAFSPEAQPELWSEEIFIRMVAACRSGAVLATYCAKGEIRRRLTRAGFHMERLPGPPGKREILRGTYYLEDRGDSL	not soluble
MKAMRYEQISENAFKGKIQVYLEQILGDASLILKTLHEKDQCLLCELDDLGHVFQDMQGIASSFYLQSYIEEFTPAFIELAKAIKALSEHKHGALIVIERADPVERFIQKGTSLHAEISSSLIESIFFPGNPLHDGALLVRENKLVSASNVLPLTTKEVDIHLGTRHLAALGMSGYTDALVLVVSEETGKMSFAKDGVLYPLISPRT	not soluble
MKAQVEYIILPFKKRLDGFTYWQRELEPAIHPALKAYVKAENATGGVSSVMIFWEIARNTDHFCSDFKTDRDVRMFLTLYFWKYLCYFANIDFYTGQDKTEEILKGEAD	not soluble
MKCIAIDDEPLALKQLTDYISRVPFLSLVKSCQDAFEAMKVLADEEIDLIFVDINMPDLNGLDFIRSLISRPMVVFTTAYSEYAVDGFKLDAVDYLLKPFEFQDLLKAADKARKQYEYRMLEQQGELGNSSQIKGDSLFVKSDYKVVRIDVKNIRYIEGMSEYVRIFIEGEDKPVITLASLQKMEERLPTYFMRVHRSYIVNLRKITEVSRLRIIFDRNTYIPVGDNYKERFAEHISKLSFS	not soluble
MKDDIKRRIDLAAGRKRSQLVLKNAQILNVFSHEIISGDIAIDQGKIVGIGNYNGLENIDLEGKVVVPGLIDGHVHMESAMVTPGQFARAIVPRGTTTIVADPHEIANVCGIPGIEYMLKASEGMPLNVYMMLPSCVPATSFENAGANLKAKDLAPLINHEKVLGLGELMDYPGVIAGEESIIDKIMIAEGKMIDGHGPDIKEEALNAYVAAGVRTEHECSTVEEMINRLRLGMYILIREGSAARNLKTLVRGITPENMRRCLFCTDDKHPEDILEAGHIDHNVRVAIKEGLDPISAVKMATINAAECYGLKDLGAIAPGYRADLVVLDNLETFHVTKVFKDGKLVAQDGKAFFEAQSTEDHTVTQTVNAKELTPEDLVLSLETDIVNVIKLLPHSLVTQRVSRKVEVKEGTFRYHEDLDILKLAVIERHKRTGNIGLGLVEDFRLKGGAIASTVAHDSHNIIVIGDNDEDMLLAVNELNTVGGGITICSKGEILQTLSLPIAGLMAQGTMEEVNEQLKQMLEIAYKKLGINEQIDPFMTLSFLALPVIPELKLTDLGLFDVKNFRFISLNR	not soluble
